Measured values published in publication PMC7647994 (2020).
Read-outs that look alike come from different tables or passages of the source. One block for each molecule: values may come before it.

Assays:
[1] = target: H10-tagged zinc-binding domain of human CLPX (human); assay: SEC; Superose 12; H10PDIP38, ZBD, or both together; elution profiles from quantified protein bands
[2] = target: H10-tagged zinc-binding domain of human CLPX (human); assay: pull-down; series of pull-down experiments to estimate the affinity of PDIP38 for the ZBD (Supplementary Fig. 3)
[3] = target: T1, H10-tagged zinc-binding domain of human CLPX (human)
T1 chain: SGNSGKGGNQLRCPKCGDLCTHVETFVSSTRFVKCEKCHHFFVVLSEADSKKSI

stoichiometry N [1]: 2
Molecule: H10-tagged zinc-binding domain of human CLPX (domain or fragment)

Kd [2]: 1800 nM
B1: untagged PDIP38 (natural protein)
chain: SSRNRPEGKVLETVGVFEVPKQNGKYETGQLFLHSIFGYRGVVLFPWQARLYDRDVASAAPEKAENPAGHGSKEVKGKTHTYYQVLIDARDCPHISQRSQTEAVTFLANHDDSRALYAIPGLDYVSHEDILPYTSTDQVPIQHELFERFLLYDQTKAPPFVARETLRAWQEKNHPWLELSDVHRETTENIRVTVIPFYMGMREAQNSHVYWWRYCIRLENLDSDVVQLRERHWRIFSLSGTLETVRGRGVVGREPVLSKEQPAFQYSSHVSLQASSGHMWGTFRFERPDGSHFDVRIPPFSLESNKDEKTPPSGLHW

stoichiometry N (PDIP38 per ZBD2) [1]: 1
B2: His10-tagged recombinant PDIP38 (H10PDIP38) (natural protein)
chain: SSRNRPEGKVLETVGVFEVPKQNGKYETGQLFLHSIFGYRGVVLFPWQARLYDRDVASAAPEKAENPAGHGSKEVKGKTHTYYQVLIDARDCPHISQRSQTEAVTFLANHDDSRALYAIPGLDYVSHEDILPYTSTDQVPIQHELFERFLLYDQTKAPPFVARETLRAWQEKNHPWLELSDVHRETTENIRVTVIPFYMGMREAQNSHVYWWRYCIRLENLDSDVVQLRERHWRIFSLSGTLETVRGRGVVGREPVLSKEQPAFQYSSHVSLQASSGHMWGTFRFERPDGSHFDVRIPPFSLESNKDEKTPPSGLHW

Kd [3]: ~1800 nM
B3: GST-PDIP38 fusion protein (natural protein)
chain: SSRNRPEGKVLETVGVFEVPKQNGKYETGQLFLHSIFGYRGVVLFPWQARLYDRDVASAAPEKAENPAGHGSKEVKGKTHTYYQVLIDARDCPHISQRSQTEAVTFLANHDDSRALYAIPGLDYVSHEDILPYTSTDQVPIQHELFERFLLYDQTKAPPFVARETLRAWQEKNHPWLELSDVHRETTENIRVTVIPFYMGMREAQNSHVYWWRYCIRLENLDSDVVQLRERHWRIFSLSGTLETVRGRGVVGREPVLSKEQPAFQYSSHVSLQASSGHMWGTFRFERPDGSHFDVRIPPFSLESNKDEKTPPSGLHW
